Drawing on the RNAGym collection of RNA variant scans (doi:10.1093/molbev/msab373), this text covers reverse-splicing fitness for 84 variants.

First the molecules themselves.
B1: Azoarcus group I ribozyme (parent)
chain: GUGCCUUGCGCCGGGAAACCACGCAAGGGAUGGUGUCAAAUUCGGCGAAACCUAAGCGCCCGCCCGGGCGUAUGGCAACGCCGAGCCAAGCUUCGGCGCCUGCGCCGAUGAAGGUGUAGAGACUAGACGGCACCCACCUAAGGCAAACGCUAUGGUGAAGGCAUAGUCCAGGGAGUGGCGAAAGUCACACAAACCGG

Variants of B1 are the subject of the data set. The data set can be described thus: reverse-splicing fitness (ratio to wild type); higher = more active; in vitro selection; Mg2+ level not given. Put shortly:
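An in vitro group I ribozyme library with randomized positions was T7-transcribed and gel-purified. In triplicate, 10 pmol RNA in EPPS pH 7.5 was reacted with 50 pmoles of a 30-nt RNA substrate for 1 h at 37 °C across several added MgCl2 levels (1–48 mM), then stopped with EDTA. Products were reverse transcribed from a substrate-complementary primer, PCR-amplified and sequenced (HiSeq 4000). Fitness is a variant's read proportion after selection over that before, normalised to wild type.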
As to C82A A111G A145G C150G U176G, the reverse-splicing fitness is 0.00721. The result for C82A A111G A120U C150U C169A reads 0.00487; that for C82A A111G A120U C150U C169U, 0.0051; that for C82A A111G A120U C150U C169G, 0.00566.

For the variant C82A A111G A145C C150U U176G, the reverse-splicing fitness was 0.0154. In the case of C82A A111G A145C C150U U176C it was 0.0542; in that of C82A A111G A145C C150U U176A, 0.0434; in that of C82A A111G A120U C150U C169A U176C, 0.00346. In the case of C82A A111G A120U C150U C169A U176G it was 0.00235; in that of C82A A111G A120U C150U C169A U176A, 0.00534. Turning to C82A A111G A120U C150G U176A, the reverse-splicing fitness was determined as 0.00446. In the case of C82A A111G A120U C150G U176C it was 0.00582; in that of C82A A111G A120U C150G U176G, 0.0031; in that of C82A A111G A145G C150A C169A, 0.0118. For C82A A111G A145G C150A C169U, the reverse-splicing fitness is 0.0109. In the case of C82A A111G A145G C150A C169G it was 0.00998; in that of C82A A111G A120U C150A C169A U176G, 0.00194. In the case of C82A A111G A120U C150A C169A U176A it was 0.00499; in that of C82A A111G A120U C150A C169A U176C, 0.00319; in that of C82A A111G A120U A145U C150A C169G U176A, 0.00301. Consider C82A A111G A120U A145U C150A C169G U176C, for which the reverse-splicing fitness was found to be 0.00264. As to C82A A111G A120U A145U C150A C169G U176G, the reverse-splicing fitness came out at 0.0019. In the case of C82A A111G A120U A145G C150G U176A it was 0.00592; in that of C82A A111G A120U A145G C150G U176G, 0.00403. The result for C82A A111G A120U A145G C150G U176C reads 0.00835; that for C82A A111G A145G C150U C169U, 0.0135; that for C82A A111G A145G C150U C169G, 0.0102. The result for C82A A111G A145G C150U C169A reads 0.0115; that for C82A A111G A120U A145U C150U C169U U176C, 0.00305. On to C82A A111G A120U A145U C150U C169U U176G, for which the reverse-splicing fitness is 0.00222. As for C82A A111G A120U A145U C150U C169U U176A, the reverse-splicing fitness came out at 0.00273. On to C82A A111G A145C C150U C169U, for which the reverse-splicing fitness amounted to 0.0104.

For the variant C82A A111G A145C C150U C169G, the reverse-splicing fitness stood at 0.00745. The result for C82A A111G A145C C150U C169A reads 0.00814; that for C82A A111G A120U C150G C169U, 0.00601. In the case of C82A A111G A120U C150G C169A it was 0.00678; in that of C82A A111G A120U C150G C169G, 0.00649.

Take C82A A111G A120U A145U C150G C169U: the reverse-splicing fitness amounted to 0.00268. The result for C82A A111G A120U A145U C150G C169G reads 0.00311; that for C82A A111G A120U A145U C150G C169A, 0.00373.

Regarding C82A A111G A145C C169A U176A, the reverse-splicing fitness was 0.0123. In the case of C82A A111G A145C C169A U176C it was 0.00756.

Take C82A A111G A145C C169A U176G: the reverse-splicing fitness is 0.00582. The result for C82A A111G A120U A145G C150A C169U reads 0.00455; that for C82A A111G A120U A145G C150A C169G, 0.00666. The result for C82A A111G A145G C150A U176C reads 0.0453; that for C82A A111G A145G C150A U176A, 0.0293; that for C82A A111G A145G C150A U176G, 0.0122. The result for C82A A111G A145C C169G U176C reads 0.0155; that for C82A A111G A145C C169G U176A, 0.0278; that for C82A A111G A145C C169G U176G, 0.00487. Take C82A A111G A120U A145U C169A: the reverse-splicing fitness was 0.00232.

As for C82A A111G A120U A145U C169U, the reverse-splicing fitness came out at 0.00422. With C82A A111G A120U A145U C169G, the reverse-splicing fitness was 0.00329. In the case of C82A A111G A145G C150A C169G U176G it was 0.00702. Turning to C82A A111G A145G C150A C169G U176A, the reverse-splicing fitness turned out to be 0.0224. In the case of C82A A111G A145G C150A C169G U176C it was 0.0256; in that of C82A A111G A120U A145G C150U C169G U176G, 0.00249; in that of C82A A111G A120U A145G C150U C169G U176C, 0.00643. In the case of C82A A111G A120U A145G C150U C169G U176A it was 0.0115. The result for C82A A111G A120U A145G C150G C169U U176A reads 0.00739. As for C82A A111G A120U A145G C150G C169U U176G, the reverse-splicing fitness was 0.00328. In the case of C82A A111G A120U A145G C150G C169U U176C it was 0.00796; in that of C82A A111G A145C C150U C169A U176A, 0.0133.

For the variant C82A A111G A145C C150U C169A U176C, the reverse-splicing fitness turned out to be 0.00698.

Turning to C82A A111G A145C C150U C169A U176G, the reverse-splicing fitness was 0.00703. In the case of C82A A111G A120U A145G C150U U176C it was 0.0133; in that of C82A A111G A120U A145G C150U U176A, 0.0096; in that of C82A A111G A120U A145G C150U U176G, 0.00409. In the case of C82A A111G A145G C150G C169U U176A it was 0.0112; in that of C82A A111G A145G C150G C169U U176G, 0.00825; in that of C82A A111G A145G C150G C169U U176C, 0.0123. The result for C82A A111G A145C C150A reads 0.018; that for C82A A111G A145C C150G, 0.0325. As for C82A A111G A145C C150U, the reverse-splicing fitness worked out at 0.0851. The result for C82A A111G A145G C150U C169U U176C reads 0.0135; that for C82A A111G A145G C150U C169U U176A, 0.0138. As to C82A A111G A145G C150U C169U U176G, the reverse-splicing fitness is 0.00655. The result for C82A A111G A120U C169G reads 0.00374; that for C82A A111G A120U C169U, 0.00452; that for C82A A111G A120U C169A, 0.00261.

Take C82A A111G A145C C150A U176C: the reverse-splicing fitness was 0.0184. The result for C82A A111G A145C C150A U176A reads 0.015.

For the variant C82A A111G A145C C150A U176G, the reverse-splicing fitness came out at 0.00802.
